Each block holds one substance with its values, some of them ahead of it.
Tests used:
Assay in all cases: cell-based or functional assay
[1] = molecular target: beta1 integrin on mammary epithelial cells (MECs) (UniProt P09055)
[2] = molecular target: hypoglycosylated dystroglycan of vector-infected MDA-MB-231 human breast cancer cells and LN18 human glioma cells (human) (UniProt Q14118)
[3] = molecular target: glycosylated dystroglycan of LARGE-expressing MDA-MB-231 human breast cancer cells and LN18 human glioma cells (human) (UniProt Q14118)
[4] = molecular target: human dystroglycan (WT DG) expressed by retrovirus in DG-knockout MEpG mammary epithelial cells (human) (UniProt Q14118)
[5] = molecular target: wild type human beta1 integrin re-expressed by retrovirus in beta1 integrin-knockout E3D1cre19 MECs (human) (UniProt P05556)
Chain of wild type human beta1 integrin re-expressed by retrovirus in beta1 integrin-knockout E3D1cre19 MECs (human) (P05556 21-798): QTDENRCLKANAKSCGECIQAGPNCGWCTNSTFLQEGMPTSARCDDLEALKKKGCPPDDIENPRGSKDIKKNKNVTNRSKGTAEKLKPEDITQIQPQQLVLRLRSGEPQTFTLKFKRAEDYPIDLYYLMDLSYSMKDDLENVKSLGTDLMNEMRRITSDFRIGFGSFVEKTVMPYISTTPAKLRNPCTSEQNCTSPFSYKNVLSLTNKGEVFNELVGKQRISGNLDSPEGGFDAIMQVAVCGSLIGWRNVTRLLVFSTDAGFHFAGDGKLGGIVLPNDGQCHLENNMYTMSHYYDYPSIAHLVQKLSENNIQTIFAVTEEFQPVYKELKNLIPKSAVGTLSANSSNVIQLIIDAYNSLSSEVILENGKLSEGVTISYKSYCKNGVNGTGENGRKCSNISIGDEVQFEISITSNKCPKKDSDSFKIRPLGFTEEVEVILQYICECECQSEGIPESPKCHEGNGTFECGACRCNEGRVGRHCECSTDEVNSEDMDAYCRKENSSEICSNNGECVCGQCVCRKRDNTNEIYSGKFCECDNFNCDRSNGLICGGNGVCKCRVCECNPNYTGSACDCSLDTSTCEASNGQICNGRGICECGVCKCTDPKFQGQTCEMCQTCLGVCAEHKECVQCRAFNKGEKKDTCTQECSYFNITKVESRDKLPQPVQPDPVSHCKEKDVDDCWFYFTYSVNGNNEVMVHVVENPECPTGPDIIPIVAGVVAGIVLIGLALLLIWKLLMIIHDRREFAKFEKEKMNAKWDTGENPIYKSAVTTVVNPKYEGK

Chain of beta1 integrin on mammary epithelial cells (MECs) (P09055 21-798 limits assumed): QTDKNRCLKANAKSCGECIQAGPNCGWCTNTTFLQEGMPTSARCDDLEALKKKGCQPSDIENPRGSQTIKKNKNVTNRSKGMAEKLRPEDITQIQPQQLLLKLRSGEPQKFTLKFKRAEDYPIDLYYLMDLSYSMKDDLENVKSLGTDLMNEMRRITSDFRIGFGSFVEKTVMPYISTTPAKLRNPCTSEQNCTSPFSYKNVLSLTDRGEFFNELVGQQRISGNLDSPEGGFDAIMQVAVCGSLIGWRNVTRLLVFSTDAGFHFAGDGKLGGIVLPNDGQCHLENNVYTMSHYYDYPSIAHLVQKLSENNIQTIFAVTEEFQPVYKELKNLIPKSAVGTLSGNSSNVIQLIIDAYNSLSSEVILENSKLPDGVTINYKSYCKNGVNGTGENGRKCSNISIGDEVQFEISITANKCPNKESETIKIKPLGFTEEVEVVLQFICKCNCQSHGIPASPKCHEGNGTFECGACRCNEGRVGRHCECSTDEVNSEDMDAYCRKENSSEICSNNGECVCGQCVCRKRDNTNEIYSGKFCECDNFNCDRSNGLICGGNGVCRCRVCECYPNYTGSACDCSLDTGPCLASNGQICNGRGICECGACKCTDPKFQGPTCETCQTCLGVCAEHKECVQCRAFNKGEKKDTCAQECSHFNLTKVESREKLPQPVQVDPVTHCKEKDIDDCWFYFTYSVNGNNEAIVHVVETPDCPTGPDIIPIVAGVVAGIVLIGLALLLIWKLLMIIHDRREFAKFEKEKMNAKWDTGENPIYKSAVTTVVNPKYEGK

Ln internalization, cellular fluorescence intensity of Rhod-Ln by flow cytometry, normalized to Ln alone control [1]: 36 % decrease
Substance: Hat2/5 antibody

MFI of internalized Rhod-Ln, flow cytometry, LN18 cells [2]: 0.145 MFI
MFI of internalized Rhod-Ln, flow cytometry, MDA-MB-231 cells [2]: 0.1 MFI
Substance: rhodamine-labeled laminin-111 (from UniProt P19137 25-3083; P02469 22-1786; P02468 34-1607) (ligand)

MFI of internalized Rhod-Ln, flow cytometry, LN18 cells [3]: 1.49 MFI
MFI of internalized Rhod-Ln, flow cytometry, MDA-MB-231 cells [3]: 6.82 MFI
increase in MFI of internalized laminin, LARGE-expressing against vector LN18 cells [3]: 10 fold
increase in MFI of internalized laminin, LARGE-expressing against vector MDA-MB-231 cells [3]: 68 fold
compiled MFI of internalized Rhod-Ln, DG-expressing against DG-lacking MEpG cells [4]: 4 fold
compiled mean fluorescence intensity (MFI) of internalized Rhod-Ln, flow cytometry, MEpG cells [4]: 18 MFI
laminin internalization, compiled mean fluorescence intensity flow cytometry data [4]: 380 % more
MFI of internalized laminin, flow cytometry, E3D1cre19 cells [5]: 26.8 MFI
change in laminin internalization on re-expression of WT β1 integrin in β1 int-/- cells [5]: 20 % increase
Substance: rhodamine-labeled laminin-111, P19137 25-3083; P02469 22-1786; P02468 34-1607
